The record followed here is IntAct's records for PubMed 12193598.

First the molecules themselves.
B1: Palmitoyltransferase ERF2 (Saccharomyces cerevisiae), Q06551 (parent)
chain: MALVSRRSTRSESTSITKEEHTGEGSLTKLFFRWLVTLEGDQDINDGKGYISLPNVSNYIFFLGGRFRTVKGAKPLWLGVLLAIVCPMVLFSIFEAHKLWHTQNGYKVLVIFFYYFWVITLASFIRTATSDPGVLPRNIHLSQLRNNYQIPQEYYNLITLPTHSSISKDITIKYCPSCRIWRPPRSSHCSTCNVCVMVHDHHCIWVNNCIGKRNYRFFLIFLLGAILSSVILLTNCAIHIARESGGPRDCPVAILLLCYAGLTLWYPAILFTYHIFMAGNQQTTREFLKGIGSKKNPVFHRVVKEENIYNKGSFLKNMGHLMLEPRGPSFVSARKPHEAGDWRFMDLSPAHSFEKIQKI
partner: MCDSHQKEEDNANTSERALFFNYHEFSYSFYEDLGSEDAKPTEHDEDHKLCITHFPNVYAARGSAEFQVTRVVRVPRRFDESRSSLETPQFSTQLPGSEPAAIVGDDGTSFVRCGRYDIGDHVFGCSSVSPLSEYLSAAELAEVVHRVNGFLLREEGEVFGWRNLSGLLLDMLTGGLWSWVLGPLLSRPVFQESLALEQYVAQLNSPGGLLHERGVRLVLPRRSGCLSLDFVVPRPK

This assay covers variants of B1. The conditions noted are these: with erfd_yeast SHR5, P41912.
C189S: the “effect of a mutation on the interaction” value is given as “disrupting interaction strength”. For H201A the value was “with no effect”.
